In patent publication US20210101998A1 (Pfizer, published 2021):
Like-named read-outs stand apart in the source and are kept apart here.

T1: rabTFPI K1K2 (rabbit, limits assumed)
T1 construct: also called Rabbit TFPI K1K2; rabbit TFPI
T1 chain: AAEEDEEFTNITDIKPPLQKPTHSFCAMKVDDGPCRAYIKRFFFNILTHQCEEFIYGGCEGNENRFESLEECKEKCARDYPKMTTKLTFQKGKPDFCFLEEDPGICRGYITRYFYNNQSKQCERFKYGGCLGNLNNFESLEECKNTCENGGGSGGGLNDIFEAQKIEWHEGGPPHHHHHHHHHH

T2: murTFPI K1K2 (mouse)
T2 construct: also called Mouse TFPI K1K2; mouse TFPI
T2 chain: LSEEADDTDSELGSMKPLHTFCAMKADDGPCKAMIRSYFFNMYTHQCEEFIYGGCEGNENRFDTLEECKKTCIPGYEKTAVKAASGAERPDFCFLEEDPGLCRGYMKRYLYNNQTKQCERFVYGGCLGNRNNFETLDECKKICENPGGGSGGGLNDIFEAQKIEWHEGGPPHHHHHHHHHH


What was measured:
rabTFPI K1K2 [1] = biological target: T1, rabTFPI K1K2; test: SPR, antibody ligand, TFPI analyte
humTFPI K1K2 [2] = biological target: T3, humTFPI K1K2 (human); test: SPR, antibody ligand, TFPI analyte
T3 construct: Biotinylated on the AviTag for ELISA; also called Human TFPIα K1K2; humTFPI K1K2-aviHis10

humTFPI K1K2 [3] = biological target: T3, humTFPI K1K2; test: cell-based or functional assay
rabTFPI K1K2 [4] = biological target: T1, rabTFPI K1K2; test: ELISA, biotinylated TFPI on streptavidin plate
Procedure: (§1) Purified anti-TFPI antibodies were diluted to 1 ug/ml in ELISA assay buffer, then serially diluted three-fold to generate an eight-point dilution series. The diluted antibodies were added at a volume of 100 uL per well. The plates were incubated at room temperature for 2 hours. After washing the plates with PBS/0.05% Tween 20, the plates were incubated with a goat anti-mouse IgG-Fc polyclonal antibody conjugated with horseradish peroxidase (Pierce) at 1:10,000 dilution. After 1 hour of incubation, bound antibody was detected with the addition of a TMB substrate solution. Absorbances were read a 450 nm, and the data were analyzed by GraphPad Prism software.

humTFPI K1K2 [5] = biological target: T3, humTFPI K1K2; test: ELISA, biotinylated TFPI on streptavidin plate
Procedure: as §1

rabTFPI K1K2 [6] = biological target: T1, rabTFPI K1K2; test: ELISA, biotinylated TFPI on streptavidin plate
humTFPI K1K2 [7] = biological target: T3, humTFPI K1K2; test: ELISA, biotinylated TFPI on streptavidin plate; remark: listed apart in the source
humTFPI K1K2 [8] = biological target: T3, humTFPI K1K2; test: SPR, antibody ligand, TFPI analyte; remark: listed apart in the source
Procedure: The flow cells were activated by injecting a 1:1 mixture of 400 mM 1-Ethyl-3-(3-dimethylaminopropyl) carbodiimide hydrochloride (EDC) and N-hydroxysuccinimide (NHS) for 7 minutes at a flow rate of 10 μl/minute. Anti-human IgG antibody was diluted to 25 μg/ml in 10 mM Sodium Acetate pH 5.0 and injected over all flow cells for 7 minutes at 10 ul/minute. All flow cells were blocked with 1 M Ethanolamine-HCL (ETH) for 7 minutes at 10 μl/minute. Final immobilization level of the capture antibody was approximately 10,000 resonance units (RU). The running buffer for immobilization and kinetics was 10 mM HEPES pH 7.4, 150 mM NaCl, 3 mM EDTA, 0.05% (v/v) Tween-20 (HBS-EP+). […] Flow cell 1 was used as a reference surface. […] At the end of each cycle, the entire anti-IgG surface was regenerated by a 60 second pulse of 3 M MgCl2. Kinetic assays were conducted at 25° C. at a collection rate of 10 Hz on a BIAcore T200 instrument (GE Healthcare). Rate constants and affinities were determined by fitting the data to a 1:1 model in BIAcore T200 Evaluation software version 1.0 (GE).

murTFPI K1K2 = biological target: T2, murTFPI K1K2; test: SPR, antibody ligand, TFPI analyte
humTFPI K1K2 [9] = biological target: T3, humTFPI K1K2; test: SPR, antibody ligand, TFPI analyte; remark: listed apart in the source
humTFPI K1K2 [10] = biological target: T3, humTFPI K1K2; test: cell-based or functional assay; remark: listed apart in the source

| Binder | EC50 (rabTFPI K1K2 [6]) [nM] | EC50 (humTFPI K1K2 [7]) [nM] | Kd (humTFPI K1K2 [8]) [nM] | koff (humTFPI K1K2 [8]) [s⁻¹] | kon (humTFPI K1K2 [8]) [M⁻¹ s⁻¹] | further results |
| --- | --- | --- | --- | --- | --- | --- |
| 7A4.D9 (antibody, mouse IgG1, kappa, V domains shown, Mouse hybridoma antibody; also called mouse 7A4.D9) VH: EVQLQQSGPELVKPGASVKMSCKASGYTFTSYVMHWVKQKPGQGLEWIGYLNPYNDGTKYNEKFKGKASLISDKSSSTVYMELSSLTSEDSAVYYCATTLLYAMDYWGQGSSVTVSS VL: DIVLTQSPASLAVSLGQRATISCRASKSVSTSGYTYMHWYQQKPGQPPKLLIYLASNLESGVPARFSGSGSGTDFTLNIHPVEEEDAAAYYCQHIRELPFTFGSGTKLEIKA | – | – | – | – | – | Kd (rabTFPI K1K2 [1]): 3.55 nM; koff (rabTFPI K1K2 [1]): 0.0188 s⁻¹; kon (rabTFPI K1K2 [1]): 5.3e+06 M⁻¹ s⁻¹; Kd (humTFPI K1K2 [2]): 6.22 nM; koff (humTFPI K1K2 [2]): 0.00921 s⁻¹; kon (humTFPI K1K2 [2]): 1.48e+06 M⁻¹ s⁻¹; FXa EC50 (humTFPI K1K2 [3]): 22.3 nM; FXa-FVIIa EC50 (humTFPI K1K2 [3]): 9.35 nM; EC50 (rabTFPI K1K2 [4]): 0.0887 nM; EC50 (humTFPI K1K2 [5]): 0.0887 nM |
| 4D8-Vk1.0 × VH1.0 (antibody, human IgG1, kappa, V domains shown, Humanized 4D8 variant) VH: EVQLVESGGGLVQPGGSLRLSCAASGYTFTDYNLDWVRQAPGKGLEWVADINPINGATLYNQKFKGRFTISRDNAKNSLYLQMNSLRAEDTAVYYCARYYGDYDAMDYWGQGTLVTVSS VL: DIQMTQSPSSLSASVGDRVTITCKASQDVHTAVAWYQQKPGKAPKLLIYWASTRHTGVPSRFSGSGSGTDFTLTISSLQPEDFATYYCQQHYTTPYTFGQGTKLEIKR | 0.0785 | 0.0772 | 6.94 | 0.00047 | 67700 | – |
| 4D8-Vk1.0 × VH1.3 (antibody, human IgG1, kappa, V domains shown, Humanized 4D8 variant) VH: EVQLVESGGGLVQPGGSLRLSCAASGYTFTDYNLDWVRQAPGKGLEWVADINPINGATLYNQKFKGRATISRDNAKNSLYLQMNSLRAEDTAVYYCARYYGDYDAMDYWGQGTLVTVSS VL: DIQMTQSPSSLSASVGDRVTITCKASQDVHTAVAWYQQKPGKAPKLLIYWASTRHTGVPSRFSGSGSGTDFTLTISSLQPEDFATYYCQQHYTTPYTFGQGTKLEIKR | 0.0556 | 0.0822 | 7.19 | 0.000571 | 79500 | – |
| 4D8-Vk1.1 × VH1.2 (antibody, human IgG1, kappa, V domains shown, Humanized 4D8 variant) VH: EVQLVESGGGLVQPGGSLRLSCAASGYTFTDYNLDWVRQAPGKGLEWVGDINPINGATLYNQKFKGRFTISRDNAKNSLYLQMNSLRAEDTAVYYCARYYGDYDAMDYWGQGTLVTVSS VL: DIQMTQSPSSLSASVGDRVTITCKASQDVHTAVAWYQQKPGKAPKLLIYWASTRHTGVPSRFSGSGSGTDYTLTISSLQPEDFATYYCQQHYTTPYTFGQGTKLEIKR | 0.0783 | 0.059 | 0.627 | 9.49e-05 | 151000 | – |
| 4D8-Vk1.0 × VH1.1 (antibody, human IgG1, kappa, V domains shown, Humanized 4D8 variant) VH: EVQLVESGGGLVQPGGSLRLSCAASGYTFTDYNLDWVRQAPGKGLEWVGDINPINGATLYNQKFKGRATISVDQAKNSAYLQMNSLRAEDTAVYYCARYYGDYDAMDYWGQGTLVTVSS VL: DIQMTQSPSSLSASVGDRVTITCKASQDVHTAVAWYQQKPGKAPKLLIYWASTRHTGVPSRFSGSGSGTDFTLTISSLQPEDFATYYCQQHYTTPYTFGQGTKLEIKR | 0.0705 | 0.0884 | 25.4 | 0.00154 | 60600 | – |
| 4D8-Vk1.1 × VH1.0 (antibody, human IgG1, kappa, V domains shown, Humanized 4D8 variant) VH: EVQLVESGGGLVQPGGSLRLSCAASGYTFTDYNLDWVRQAPGKGLEWVADINPINGATLYNQKFKGRFTISRDNAKNSLYLQMNSLRAEDTAVYYCARYYGDYDAMDYWGQGTLVTVSS VL: DIQMTQSPSSLSASVGDRVTITCKASQDVHTAVAWYQQKPGKAPKLLIYWASTRHTGVPSRFSGSGSGTDYTLTISSLQPEDFATYYCQQHYTTPYTFGQGTKLEIKR | 0.0451 | 0.0429 | – | – | – | – |
| 4D8-Vk1.0 × VH1.2 (antibody, human IgG1, kappa, V domains shown, Humanized 4D8 variant) VH: EVQLVESGGGLVQPGGSLRLSCAASGYTFTDYNLDWVRQAPGKGLEWVGDINPINGATLYNQKFKGRFTISRDNAKNSLYLQMNSLRAEDTAVYYCARYYGDYDAMDYWGQGTLVTVSS VL: DIQMTQSPSSLSASVGDRVTITCKASQDVHTAVAWYQQKPGKAPKLLIYWASTRHTGVPSRFSGSGSGTDFTLTISSLQPEDFATYYCQQHYTTPYTFGQGTKLEIKR | 0.0422 | 0.0758 | 0.695 | 0.000165 | 238000 | – |
| 4D8-Vk1.1 × VH1.3 (antibody, human IgG1, kappa, V domains shown, Humanized 4D8 variant) VH: EVQLVESGGGLVQPGGSLRLSCAASGYTFTDYNLDWVRQAPGKGLEWVADINPINGATLYNQKFKGRATISRDNAKNSLYLQMNSLRAEDTAVYYCARYYGDYDAMDYWGQGTLVTVSS VL: DIQMTQSPSSLSASVGDRVTITCKASQDVHTAVAWYQQKPGKAPKLLIYWASTRHTGVPSRFSGSGSGTDYTLTISSLQPEDFATYYCQQHYTTPYTFGQGTKLEIKR | 0.0511 | 0.0651 | 0.823 | 0.000131 | 159000 | – |
| 4D8-Vk1.1 × VH1.1 (antibody, human IgG1, kappa, V domains shown, Humanized 4D8 variant) VH: EVQLVESGGGLVQPGGSLRLSCAASGYTFTDYNLDWVRQAPGKGLEWVGDINPINGATLYNQKFKGRATISVDQAKNSAYLQMNSLRAEDTAVYYCARYYGDYDAMDYWGQGTLVTVSS VL: DIQMTQSPSSLSASVGDRVTITCKASQDVHTAVAWYQQKPGKAPKLLIYWASTRHTGVPSRFSGSGSGTDYTLTISSLQPEDFATYYCQQHYTTPYTFGQGTKLEIKR | 0.0788 | 0.0818 | 0.832 | 0.000161 | 193000 | – |
| 4D8-Vk1.0 × VH1.4 (antibody, human IgG1, kappa, V domains shown, Humanized 4D8 variant) VH: EVQLVESGGGLVQPGGSLRLSCAASGYTFTDYNLDWVRQAPGKGLEWVADINPINGATLYNQKFKGRFTISRDQAKNSLYLQMNSLRAEDTAVYYCARYYGDYDAMDYWGQGTLVTVSS VL: DIQMTQSPSSLSASVGDRVTITCKASQDVHTAVAWYQQKPGKAPKLLIYWASTRHTGVPSRFSGSGSGTDFTLTISSLQPEDFATYYCQQHYTTPYTFGQGTKLEIKR | 0.0426 | 0.056 | 11.1 | 0.000835 | 75500 | – |
| 6B7.c5 (antibody, mouse IgG1, kappa, V domains shown, Mouse hybridoma antibody; also called mouse 6b7.c5) VH: EVLLQQSGPELVKPGSSVKIPCKASGYTFTDYTMDWVKQSHGKSLEWIGDINPSNGGSIYNRKFKGKATLTVDKSSSTAYMELRSLTSEDTAVYYCARMHYNYDGFPYWGQGTLVTVSA VL: DIVMTQSHKFMSTSVGDRVSITCKASQDVITAVAWYQQKPGQSPKLLIYWASTRHTGVPVRFTGSGSGTDYTLTIISVQAEDLALYYCQQHYSTPYTFGGGTKLEIKA | – | – | – | – | – | Kd (rabTFPI K1K2 [1]): 4.95 nM; koff (rabTFPI K1K2 [1]): 0.00564 s⁻¹; kon (rabTFPI K1K2 [1]): 1.14e+06 M⁻¹ s⁻¹; Kd (humTFPI K1K2 [2]): 6.58 nM; koff (humTFPI K1K2 [2]): 0.00363 s⁻¹; kon (humTFPI K1K2 [2]): 552000 M⁻¹ s⁻¹; FXa EC50 (humTFPI K1K2 [3]): 13.9 nM; FXa-FVIIa EC50 (humTFPI K1K2 [3]): 12.1 nM; EC50 (rabTFPI K1K2 [4]): 0.129 nM; EC50 (humTFPI K1K2 [5]): 0.121 nM |
| TFPI-26 (antibody, human IgG1, lambda, V domains shown, Human IgG1-3M from phage display; also called mAb-TFPI-26) VH: not shown VL: QSVLTQPPSLSGAPGQRVTISCTGSSSNLGADYDVQWYQQLPGTAPKLLIFGNNNRPSGVPDRFSGSRSGTSASLAITGLQAEDEANYYCQSYDRSLSGSMVFGGGTKLTVLG | – | – | – | – | – | Kd (murTFPI K1K2): 3.68 nM; koff (murTFPI K1K2): 0.00476 s⁻¹; kon (murTFPI K1K2): 1.29e+06 M⁻¹ s⁻¹; Kd (humTFPI K1K2 [9]): 5.79 nM; koff (humTFPI K1K2 [9]): 0.00118 s⁻¹; kon (humTFPI K1K2 [9]): 205000 M⁻¹ s⁻¹; FXa EC50 (humTFPI K1K2 [10]): 12.8 nM; FXa-FVIIa EC50 (humTFPI K1K2 [10]): 9.6 nM |
| TFPI-3 (antibody, human IgG1, kappa, V domains shown, Human IgG1-3M from phage display; also called mAb-TFPI-3) VH: not shown VL: AIQLTQSPSSLSASVGDRVTITCRASQGISSSLAWYQQKPGKAPKLLIYAASTLQSGVPSRFSGSGSGTDFTLTISSLQPEDFATYYCQQLDSYPLSFGQGTKLEIKR | – | – | – | – | – | Kd (murTFPI K1K2): 3.81 nM; koff (murTFPI K1K2): 0.000824 s⁻¹; kon (murTFPI K1K2): 215000 M⁻¹ s⁻¹; Kd (humTFPI K1K2 [9]): 27.1 nM; koff (humTFPI K1K2 [9]): 0.0017 s⁻¹; kon (humTFPI K1K2 [9]): 62500 M⁻¹ s⁻¹; FXa EC50 (humTFPI K1K2 [10]): 208 nM; FXa-FVIIa EC50 (humTFPI K1K2 [10]): 37.4 nM |
